Test results: patent US20110189730 (published 2011)

What was measured:
[1] = molecular target: T1, Sin Nombre hantavirus nucleocapsid protein (N) (Sin Nombre hantavirus) (UniProt Q89462); assay: filter; details: 5' m7G cap
T1 sequence: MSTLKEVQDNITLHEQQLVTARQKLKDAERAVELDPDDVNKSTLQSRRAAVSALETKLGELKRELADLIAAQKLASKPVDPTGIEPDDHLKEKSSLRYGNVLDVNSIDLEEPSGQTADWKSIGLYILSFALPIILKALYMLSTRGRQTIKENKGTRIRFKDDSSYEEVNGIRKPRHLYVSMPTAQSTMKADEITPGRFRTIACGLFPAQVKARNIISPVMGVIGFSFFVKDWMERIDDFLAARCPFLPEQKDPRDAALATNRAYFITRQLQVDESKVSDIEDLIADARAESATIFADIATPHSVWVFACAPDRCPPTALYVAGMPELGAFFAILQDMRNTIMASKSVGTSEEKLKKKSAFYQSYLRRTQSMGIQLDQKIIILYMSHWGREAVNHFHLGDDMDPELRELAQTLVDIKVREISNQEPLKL

[2] = molecular target: T2, Sin Nombre hantavirus nucleocapsid protein (N) (Sin Nombre hantavirus, UniProt Q89462 SEQ:1-428); assay: filter; details: tags: C-terminal octahistidine tag, expressed in E. coli; label: 32P-CTP
T2 sequence: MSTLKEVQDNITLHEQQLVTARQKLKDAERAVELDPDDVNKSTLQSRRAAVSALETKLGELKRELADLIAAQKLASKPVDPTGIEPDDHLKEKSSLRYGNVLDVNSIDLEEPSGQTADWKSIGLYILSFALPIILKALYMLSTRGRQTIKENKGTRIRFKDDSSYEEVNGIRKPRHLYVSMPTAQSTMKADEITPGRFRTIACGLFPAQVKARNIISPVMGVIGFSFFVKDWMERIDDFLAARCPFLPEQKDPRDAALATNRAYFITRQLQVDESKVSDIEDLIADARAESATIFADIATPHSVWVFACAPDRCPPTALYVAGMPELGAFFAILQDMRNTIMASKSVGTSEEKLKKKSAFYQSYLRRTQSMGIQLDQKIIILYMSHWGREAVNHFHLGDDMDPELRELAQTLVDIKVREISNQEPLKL

| Molecule | Kd [1] | Kd [2] |
| --- | --- | --- |
| capped TriEx 5'-terminal decamer | 130 nM |  |
| GUCUCC (ssRNA, 5' m7G cap) [m7GUCUCC capped hexamer] |  | 125 nM |
| GUCUCUCCCA (ssRNA, 5' m7G cap) [m7… capped decamer] |  | ~130 nM |
